In PMC11286949, “Structural basis of tRNA recognition by the widespread OB fold”:

Legend:
Assay in all cases: ITC; ITC (Arc1p): 25 mM Tris-HCl pH 7.4, 150 mM NaCl, 2 mM MgCl2, 25 °C. FP and competition FP: 25 mM Tris-HCl pH 7.5, 150 mM NaCl (Arc1p) or 50 mM NaCl (Trbp111), 2 mM MgCl2, room temperature
Settings in all cases: protein: recombinant; tags: His-MBP removed; tRNA fold
Arc1p dNdM1 = target: T1, Arc1p dNdM1 (Saccharomyces cerevisiae, UniProt P46672 166-376)
T1 sequence: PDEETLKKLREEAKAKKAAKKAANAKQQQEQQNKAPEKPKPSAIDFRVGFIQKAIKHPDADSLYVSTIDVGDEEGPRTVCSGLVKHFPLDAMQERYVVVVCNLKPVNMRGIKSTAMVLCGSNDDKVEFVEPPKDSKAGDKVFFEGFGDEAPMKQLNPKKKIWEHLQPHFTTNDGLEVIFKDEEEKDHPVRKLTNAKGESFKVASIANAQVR

Arc1p dN S278A/M281A = target: T2, Arc1p dN S278A/M281A (Saccharomyces cerevisiae, UniProt P46672 132-376, S278A;M281A;del1-131)
T2 sequence: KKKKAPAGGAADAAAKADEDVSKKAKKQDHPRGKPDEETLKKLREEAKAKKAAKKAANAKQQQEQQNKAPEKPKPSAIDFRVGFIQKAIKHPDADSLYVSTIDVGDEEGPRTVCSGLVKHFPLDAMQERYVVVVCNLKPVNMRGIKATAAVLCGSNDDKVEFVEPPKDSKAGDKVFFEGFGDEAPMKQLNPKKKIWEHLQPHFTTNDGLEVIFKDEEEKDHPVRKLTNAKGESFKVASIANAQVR

Arc1p = target: T3, Arc1p (Saccharomyces cerevisiae, UniProt P46672 1-376)
T3 sequence: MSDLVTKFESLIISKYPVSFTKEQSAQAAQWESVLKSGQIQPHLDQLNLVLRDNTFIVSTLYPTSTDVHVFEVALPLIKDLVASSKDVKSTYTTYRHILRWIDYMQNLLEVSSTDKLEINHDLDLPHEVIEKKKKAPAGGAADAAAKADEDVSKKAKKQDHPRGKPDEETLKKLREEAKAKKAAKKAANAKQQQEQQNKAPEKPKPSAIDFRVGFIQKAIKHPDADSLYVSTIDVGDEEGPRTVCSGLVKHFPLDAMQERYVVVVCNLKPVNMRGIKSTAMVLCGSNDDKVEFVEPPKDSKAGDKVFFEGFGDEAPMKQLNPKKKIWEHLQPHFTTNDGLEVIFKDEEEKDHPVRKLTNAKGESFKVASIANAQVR

Arc1p dN = target: T4, Arc1p dN (Saccharomyces cerevisiae, UniProt P46672 132-376, del1-131)
T4 sequence: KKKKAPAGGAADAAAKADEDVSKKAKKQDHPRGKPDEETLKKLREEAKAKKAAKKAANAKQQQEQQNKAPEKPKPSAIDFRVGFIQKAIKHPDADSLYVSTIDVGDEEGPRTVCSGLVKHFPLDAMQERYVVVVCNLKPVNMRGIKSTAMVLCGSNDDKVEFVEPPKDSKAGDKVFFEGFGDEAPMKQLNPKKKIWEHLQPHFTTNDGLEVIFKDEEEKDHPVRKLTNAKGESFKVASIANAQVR

Arc1p dN S278A = target: T5, Arc1p dN S278A (Saccharomyces cerevisiae, UniProt P46672 132-376, S278A;del1-131)
T5 sequence: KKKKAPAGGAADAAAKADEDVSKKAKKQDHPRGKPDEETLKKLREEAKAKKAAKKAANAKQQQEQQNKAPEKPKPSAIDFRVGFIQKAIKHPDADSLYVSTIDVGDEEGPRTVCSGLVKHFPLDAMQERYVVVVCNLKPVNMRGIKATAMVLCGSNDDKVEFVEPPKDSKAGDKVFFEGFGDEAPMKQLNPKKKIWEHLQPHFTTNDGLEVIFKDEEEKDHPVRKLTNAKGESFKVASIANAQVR

Arc1p dN M281A = target: T6, Arc1p dN M281A (Saccharomyces cerevisiae, UniProt P46672 132-376, M281A;del1-131)
T6 sequence: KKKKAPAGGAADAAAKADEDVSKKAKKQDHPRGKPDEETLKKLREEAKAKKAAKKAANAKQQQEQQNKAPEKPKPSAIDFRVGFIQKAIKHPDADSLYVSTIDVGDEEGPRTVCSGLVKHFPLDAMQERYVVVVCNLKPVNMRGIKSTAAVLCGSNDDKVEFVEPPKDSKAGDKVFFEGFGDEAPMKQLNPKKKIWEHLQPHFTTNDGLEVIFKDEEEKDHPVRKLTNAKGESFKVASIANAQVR

B1: tRNAIle WT (structured_RNA)
RNA: AGGCUUGUAGCUCAGGUGGUUAGAGCGCACCCCUGAUAAGGGUGAGGUCGGUGGUUCAAGUCCACUCAGGCCUACCA
Kd (Arc1p dNdM1): 2550 ± 456 nM
Kd (Arc1p dN S278A/M281A): 1430 ± 379 nM
Kd (Arc1p): 1280 ± 130 nM
Kd (Arc1p dN): 321 ± 101 nM
Kd (Arc1p dN S278A): 845 ± 149 nM
Kd (Arc1p dN M281A): 384 ± 48 nM
